Assay results: patent publication US20250376517A1 (AKESO BIOPHARMA, published 2025)
Where a chain is given by its changes, count along the chain named.

Assays:
[1] = biological target: T1, human Claudin18.2 (CLDN18.2) on the surface of CHO-K1-CLDN18.2 cells (human, UniProt P56856-2 1-261); experiment: cell ELISA on CHO-K1-CLDN18.2 cells
T1 construct: whole, on cells; Membrane protein overexpressed on CHO-K1 cells; also called hCLDN18.2; antigen on the surface of CHO-K1-CLDN18.2 cell
Procedure: (§1) CHO-K1-CLDN18.2 cells (Chinese hamster ovary cells CHO-K1 overexpressing CLDN18.2, CHO-K1 purchased from Cell Resource Center, Institute of Basic Medical Sciences, Chinese Academy of Medical Sciences, Cat. No.: 3111C0001CCC000004) were plated on a cell plate (Corning, 3599) at 2×10⁴ cells/well and cultured overnight at 5% CO₂ and 37° C., and then the cell plate in which the cells were incubated was washed once with PBST and blocked for 2 h at 37° C. using PBST containing 1% BSA as a blocking solution. After blocking, the plate was washed 3 times with PBST. The ELISA plate containing the test antibodies was incubated at 37° C. for 30 min and then washed 3 times with PBST. […] Then, the plate was incubated at 37° C. for 30 min. After incubation, the plate was washed 4 times with PBST, TMB (Neogen, 308177) was added for color developing in the dark for 5 min, and then a stop solution was added to terminate the chromogenic reaction. The ELISA plate was put into a microplate reader immediately, and the OD value of each well in the ELISA plate was read at 450 nm. The data were analyzed and processed by SoftMax Pro 6.2.1.

[2] = biological target: T1, human Claudin18.2 (CLDN18.2) on the …; experiment: cell ELISA on CHO-K1-CLDN18.2 cells; remark: listed apart in the source
Procedure: as §1

[3] = biological target: T1, human Claudin18.2 (CLDN18.2) on the …; experiment: cell ELISA on CHO-K1-CLDN18.2 cells; remark: listed apart in the source
Procedure: as §1

[4] = biological target: T1, human Claudin18.2 (CLDN18.2) on the …; experiment: flow cytometry (FACS) on CHO-K1-CLDN18.2 cells
Procedure: CHO-K1-CLDN18.2 cells in logarithmic growth phase were collected and transferred to a 1.5 mL EP tube at 3×10⁵ cells/well, and then 1% PBSA was added. The mixture was centrifuged at 1000× g for 5 min, followed by removal of the supernatant. […] 1000 μL of 1% PBSA was added, and the mixture was centrifuged at 1000×g for 5 min, followed by removal of the supernatant and washing twice with 1% PBSA. […] The mixture was resuspended and well mixed, and incubated on ice for 40 min in the dark. 1000 μL of 1% PBSA was added, and the mixture was centrifuged at 1000×g for 5 min, followed by removal of the supernatant and washing twice with 1% PBSA. 200 μL of 1% PBSA was added to resuspend the cell pellets, and the mixture was transferred to a flow cytometry tube for FACSCalibur assay.

[5] = biological target: T1, human Claudin18.2 (CLDN18.2) on the …; experiment: flow cytometry (FACS) on CHO-K1-CLDN18.2 cells; remark: listed apart in the source
[6] = biological target: T1, human Claudin18.2 (CLDN18.2) on the …; experiment: cell ELISA on CHO-K1-CLDN18.2 cells; antibody 1.000 µg/mL
Procedure: as §1

[7] = biological target: T1, human Claudin18.2 (CLDN18.2) on the …; experiment: cell ELISA on CHO-K1-CLDN18.2 cells; antibody 0 µg/mL (background, no antibody)
Procedure: as §1

[8] = biological target: T1, human Claudin18.2 (CLDN18.2) on the …; experiment: cell ELISA on CHO-K1-CLDN18.2 cells; antibody 3 µg/mL
Procedure: as §1

[9] = biological target: T1, human Claudin18.2 (CLDN18.2) on the …; experiment: cell ELISA on CHO-K1-CLDN18.2 cells; antibody 0.111 µg/mL
Procedure: as §1

[10] = biological target: T1, human Claudin18.2 (CLDN18.2) on the …; experiment: cell ELISA on CHO-K1-CLDN18.2 cells; antibody 0.004 µg/mL
Procedure: as §1

[11] = biological target: T1, human Claudin18.2 (CLDN18.2) on the …; experiment: cell ELISA on CHO-K1-CLDN18.2 cells; antibody 0.012 µg/mL
Procedure: as §1

[12] = biological target: T1, human Claudin18.2 (CLDN18.2) on the …; experiment: cell ELISA on CHO-K1-CLDN18.2 cells; antibody 0.037 µg/mL
Procedure: as §1

[13] = biological target: T1, human Claudin18.2 (CLDN18.2) on the …; experiment: cell ELISA on CHO-K1-CLDN18.2 cells; antibody 0.333 µg/mL
Procedure: as §1

B1: positive control antibody IMAB362 (antibody, human IgG1, kappa, V domains shown)
VH: QVQLQQPGAELVRPGASVKLSCKASGYTFTSYWINWVKQRPGQGLEWIGNIYPSDSYTNYNQKFKDKATLTVDKSSSTAYMQLSSPTSEDSAVYYCTRSWRGNSFDYWGQGTTLTVSS
VL: DIVMTQSPSSLTVTAGEKVTMSCKSSQSLLNSGNQKNYLTWYQQKPGQPPKLLIYWASTRESGVPDRFTGSGSGTDFTLTISSVQAEDLAVYYCQNDYSYPFTFGSGTKLEIKR
notes: Human-murine chimeric antibody; produced by Akeso Biopharma Inc; also called Claudiximab; zolbetuximab
Which EC50 [1] does the source give for B1 here?
Its EC50 is 0.153 nM.

What about the EC50 [2] of the same binder?
Its EC50 is 0.182 nM.

And the EC50 [3]?
Its EC50 is 0.201 nM.

And the EC50 [4]?
The EC50 was 0.687 µg/mL.

What about the EC50 [5] of the same binder?
Its EC50 is 0.358 µg/mL.

B2: anti-CLDN18.2 antibody 8C5.1 (antibody, V domains shown)
VH: EVQLVESGGGLVKPGGSLKLSCAASGFTFSNSAVSWVRQTPEKRLEWVATITSGVSYTYYLDSVRGRFTISRDNAKNTLYLQMSSLRSEDTAMYYCTRQFKGNALDYWGQGTSVTVSS
VL: DIVMTQSPSSLTVTAGEKVTMSCKSSQSLLNSGNQKNYLTWYQQKPGQPPKLLIYWASTRESGVPDRFTGSGSGTDFTLTINNFQAEDLAVYYCQNDYFYPLTFGAGTKLELK
notes: Murine monoclonal antibody purified from hybridoma LT020 supernatant on protein A; also called monoclonal antibody secreted by hybridoma cell line LT020
Which “OD (450 nm)” value [6] does the source give for B2 here?
The value was 1.79 OD.

And the “OD (450 nm)” value [7]?
The value was 0.086 OD.

And the “OD (450 nm)” value [8]?
The value was 1.61 OD.

What about the “OD (450 nm)” value [9] of the same binder?
Its value is 1.42 OD.

And the “OD (450 nm)” value [10]?
The value was 0.344 OD.

What about the EC50 [3] of the same binder?
Its EC50 is 0.153 nM.

And the “OD (450 nm)” value [11]?
Its value is 0.697 OD.

What about the “OD (450 nm)” value [12] of the same binder?
The value was 1.07 OD.

What about the EC50 [4] of the same binder?
The EC50 was 0.214 µg/mL.

And the “OD (450 nm)” value [13]?
The value was 1.63 OD.

B3: humanized anti-human CLDN18.2 antibody 8C5.1H2L2 (antibody, human IgG1, kappa, V domains shown)
VH: EVQLVESGGGLVKPGGSLRLSCAASGFTFSNSAVSWVRQAPGKGLEWVSTITSGVSYTYYADSVKGRFTISRDNAKNSLYLQMNSLRAEDTAVYYCTRQFKGNALDYWGQGTSVTVSS
VL: DIVMTQSPSSLSVSPGERVTISCKSSQSLLNSGNQKNYLTWYQQKPGQPPKLLIYWASTRESGVPDRFSGSGSGTDFTLTISSFQAEDVAVYYCQNDYFYPLTFGAGTKLELKR
With B3 as the binder, how does the EC50 [1] read?
The EC50 was 0.094 nM.

And the EC50 [5]?
Its EC50 is 0.234 µg/mL.

B4: humanized anti-human CLDN18.2 antibody 8C5.1H3L2 (antibody, human IgG1, kappa, V domains shown)
VH: B3 VH with T50S
VL: B3 VL
Which EC50 [2] does the source give for B4 here?
Its EC50 is 0.103 nM.

What about the EC50 [5] of the same binder?
The EC50 was 0.213 µg/mL.

B5: humanized anti-human CLDN18.2 antibody 8C5.1H2L3 (antibody, human IgG1, kappa, V domains shown)
VH: B3 VH
VL: B3 VL with T40A, F84L
B5 was tested. Which EC50 [2] did it give?
Its EC50 is 0.081 nM.

And the EC50 [5]?
Its EC50 is 0.243 µg/mL.

B6: humanized anti-human CLDN18.2 antibody 8C5.1H1L1 (antibody, human IgG1, kappa, V domains shown)
VH: B3 VH with G44R, S49A, A61L, K65R
VL: B3 VL with I21M, S82N
For B6, which EC50 [1] is on record?
The EC50 was 0.054 nM.

What about the EC50 [5] of the same binder?
Its EC50 is 0.216 µg/mL.

B7: humanized anti-human CLDN18.2 antibody 8C5.1H3L3 (antibody, human IgG1, kappa, V domains shown)
VH: B3 VH with T50S
VL: B3 VL with T40A, F84L
Which EC50 [5] does the source give for B7 here?
Its EC50 is 0.281 µg/mL.

B8: humanized anti-human CLDN18.2 antibody 8C5.1H2L1 (antibody, human IgG1, kappa, V domains shown)
VH: B3 VH
VL: B3 VL with I21M, S82N
What does the source list for B8?
EC50 [1]: 0.091 nM; EC50 [5]: 0.267 µg/mL

B9: humanized anti-human CLDN18.2 antibody 8C5.1H1L2 (antibody, human IgG1, kappa, V domains shown)
VH: B3 VH with G44R, S49A, A61L, K65R
VL: B3 VL
With B9 as the binder, how does the EC50 [1] read?
Its EC50 is 0.108 nM.

And the EC50 [5]?
Its EC50 is 0.242 µg/mL.
